{"source": "paper PMC11818384", "about": "“Structural Characteristics and Properties of the RNA-Binding Protein hnRNPK at Multiple Physical States” (International Journal of Molecular Sciences, 2025)", "proteins": {"B1": {"name": "Heterogeneous nuclear ribonucleoprotein K (hnRNPK), full-length wild type with an additional N-terminal glycine (natural protein)", "chain": "not shown", "notes": "additional glycine residue at the N-terminus, told in words; heterogeneous nuclear ribonucleoprotein K, full-length wild type; theoretical molar mass with the extra glycine 51,033 Da; also called H-hnRNPK; hydrogenated hnRNPK; source: E. coli Rosetta2 (DE3), purified (Ni Hi-trap, TEV cleavage, second Hi-trap, Superdex 200); not shown: His6, N-terminal, cleaved; eGFP, N-terminal, cleaved"}}, "key": {"[1]": {"target": "the molecule itself", "test": "SEC-MALS; SEC-LS (RALS, RI, UV) on Superdex 200 Increase 10/300 run at room temperature; hnRNPK sample kept at 4 °C (vial holder at 4 °C), low concentration"}, "[2]": {"target": "the molecule itself", "test": "SEC-MALS; SEC-LS (RALS, RI, UV) on Superdex 200 Increase 10/300 at room temperature; hnRNPK sample incubated at room temperature"}}, "note": "Values joined by “and” are separate entries in the source; they are usually repeats but may differ in a detail not shown here. Identical values can stand only once."}
{"protein": "B1", "values": [{"measurement": "stoichiometry N", "setting": "[1]", "result": "1.98 hnRNPK molecules per particle (measured MM : theoretical MM)"}, {"measurement": "stoichiometry N", "setting": "[2]", "result": "2.88 hnRNPK molecules per particle (measured MM : theoretical MM) and 1.53 hnRNPK molecules per particle (measured MM : theoretical MM)"}]}
